Assay results: publication PMC5353707

Legend:
[1] = target: EGF456 (TM456) component of the thrombin-thrombomodulin fusion proteins (human) (UniProt P07204)
[2] = target: fragment TM456 of human thrombomodulin (soluble EGF456 domains) (human) (UniProt P07204); test: SPR; biotinyl-TM456 on a neutravidin-coated CM5 chip (177 RU); thrombin injected at 30 μl/min, contact and dissociation 120 sec; 25 °C; Biacore-S200; TM456 loaded in 10 mM HEPES pH 7.4, 150 mM NaCl, 2.5 mM Ca2+, 0.05% Tween20; Kd from response units at the steady state
[3] = target: fragment TM456 of human thrombomodulin (soluble EGF456 domains) (human) (UniProt P07204)
[4] = target: Full-length rabbit thrombomodulin (TM) (rabbit)

Substance “thrombin W215A/E217A (WE) component of the fusion protein FP31WE (domain or fragment)” has a kcat/KM of protein C activation by FP31WE (thrombin WE fused to EGF456, 31-residue linker) [1] of 550 M⁻¹ s⁻¹.
“thrombin double mutant W215A/E217A (WE) (enzyme)” was tested, and the Kd [2] was 31 nM and the kcat/KM of protein C activation by thrombin WE with 500 nM TM456 [3] was 380 M⁻¹ s⁻¹.
Substance thrombin mutant W215A (enzyme) has a kcat/KM of protein C activation by FP31W215A (thrombin W215A fused to EGF456, 31-residue linker) [1] of 3300 M⁻¹ s⁻¹, a Kd [2] of 23 nM and a kcat/KM of protein C activation by thrombin W215A with 500 nM TM456 [3] of 3200 M⁻¹ s⁻¹.
Substance thrombin wild-type (enzyme) has a kcat/KM of cleavage of the PAR1 fragment by FP7 (thrombin fused to TM456, 7-residue linker) [1] of 5.8e+06 M⁻¹ s⁻¹, a kcat/KM of cleavage of the PAR1 fragment by FP17 (thrombin fused to TM456, 17-residue linker) [1] of 2e+06 M⁻¹ s⁻¹ and a kcat/KM of cleavage of the PAR1 fragment by FP31 (thrombin fused to TM456, 31-residue linker) [1] of 300000 M⁻¹ s⁻¹. The kcat/KM of cleavage of the PAR1 fragment by FP41 (thrombin fused to TM456, 41-residue linker) [1] was 950000 M⁻¹ s⁻¹, the kcat/KM of cleavage of the PAR1 fragment by FP55 (thrombin fused to TM456, 55-residue linker) [1] was 2.3e+06 M⁻¹ s⁻¹ and the kcat/KM of cleavage of the PAR1 fragment by FP69 (thrombin fused to TM456, 69-residue linker) [1] was 1.4e+07 M⁻¹ s⁻¹. For the same substance, the kcat/KM of fibrinopeptide A release by FP7 (thrombin fused to TM456, 7-residue linker) [1] was 6.7e+06 M⁻¹ s⁻¹, the kcat/KM of fibrinopeptide A release by FP17 (thrombin fused to TM456, 17-residue linker) [1] was 1.55e+06 M⁻¹ s⁻¹ and the kcat/KM of fibrinopeptide A release by FP31 (thrombin fused to TM456, 31-residue linker) [1] was 300000 M⁻¹ s⁻¹. It also gave a kcat/KM of fibrinopeptide A release by FP41 (thrombin fused to TM456, 41-residue linker) [1] of 600000 M⁻¹ s⁻¹, a kcat/KM of fibrinopeptide A release by FP55 (thrombin fused to TM456, 55-residue linker) [1] of 1.3e+06 M⁻¹ s⁻¹ and a kcat/KM of fibrinopeptide A release by FP69 (thrombin fused to TM456, 69-residue linker) [1] of 1.1e+07 M⁻¹ s⁻¹. It also gave a kcat/KM of protein C activation by FP7 (thrombin fused to TM456, 7-residue linker) [1] of 1100 M⁻¹ s⁻¹, a kcat/KM of protein C activation by FP17 (thrombin fused to TM456, 17-residue linker) [1] of 6100 M⁻¹ s⁻¹ and a kcat/KM of protein C activation by FP31 (thrombin fused to TM456, 31-residue linker) [1] of 85000 M⁻¹ s⁻¹. It also gave a kcat/KM of protein C activation by FP41 (thrombin fused to TM456, 41-residue linker) [1] of 107000 M⁻¹ s⁻¹, a kcat/KM of protein C activation by FP55 (thrombin fused to TM456, 55-residue linker) [1] of 120000 M⁻¹ s⁻¹ and a kcat/KM of protein C activation by FP69 (thrombin fused to TM456, 69-residue linker) [1] of 74000 M⁻¹ s⁻¹. For the same substance, the Kd [2] was 18 nM, the kcat/KM of protein C activation by thrombin with TM [4] was 230000 M⁻¹ s⁻¹ and the kcat/KM of protein C activation by thrombin with 500 nM TM456 [3] was 80000 M⁻¹ s⁻¹.
